Our source for the Kd values is US20250019439A1 (Adimab, published 2025).

A word on the Kd: it is the equilibrium constant for the complex coming apart. Read a low Kd as a tighter complex.

Test [1] concerns the target T1, ADI-22523 IgG.
T1 construct: anti-CD3 IgG
The test is described as follows: BLI; tip anti-ID IgG, solution ADI-22523 IgG. Here is the method: (§1) ForteBio affinity measurements were performed generally as previously described (Estep et al., MAbs. 2013 5(2):270-8). Briefly, ForteBio affinity measurements were performed by loading antibody IgG or Fabs on-line onto AHC sensors. Sensors were equilibrated off-line in assay buffer for 30 minutes and then monitored on-line for 60 seconds for baseline establishment. For avid binding measurement, sensors with loaded antibodies were exposed to IgG or Fab solutions for 3 minutes, afterwards they were transferred to assay buffer for 3 minutes for off-rate measurement. Kinetics data were fit using a 1:1 binding model in the data analysis software provided by ForteBio to obtain equilibrium dissociation constant (KD=koff/kₒₙ) values. In each column, tip-immobilized antibodies are listed first and solution antibodies second.
In general terms: In BLI a coated tip is dipped into the sample, and binding shifts an interference pattern.

Test [2] concerns the target T2, ADI-22523 Fab.
T2 construct: anti-CD3 Fab by papain digestion of the IgG
Briefly: BLI; tip anti-ID IgG, solution ADI-22523 Fab. The procedure: as §1

T1 sequence (VH, as listed by the source limits assumed, chain 1 of 2): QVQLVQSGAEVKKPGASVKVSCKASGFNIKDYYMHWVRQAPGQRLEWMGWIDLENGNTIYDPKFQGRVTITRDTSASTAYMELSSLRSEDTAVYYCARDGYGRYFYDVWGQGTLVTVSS
T1 sequence (VL, as listed by the source limits assumed, chain 2 of 2): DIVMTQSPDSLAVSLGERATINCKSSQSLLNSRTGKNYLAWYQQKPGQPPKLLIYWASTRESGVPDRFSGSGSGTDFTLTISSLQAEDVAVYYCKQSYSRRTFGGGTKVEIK
T2 sequence (VH, as listed by the source limits assumed, chain 1 of 2): as the sequence (VH, as listed by the source limits assumed, chain 1 of 2) above
T2 sequence (VL, as listed by the source limits assumed, chain 2 of 2): as the sequence (VL, as listed by the source limits assumed, chain 2 of 2) above

B1: ADI-34139 (antibody, V domains shown)
VH: EVQLLESGGGLVQPGGSLRLSCAASGFTFSSYAMSWVRQAPGKGLEWVSTISGSGGSTYYADSVKGRFTISRDNSKNTLYLQMNSLRAEDTAVYYCARLGGRRGSGSSYYYYYGMDVWGQGTTVTVSS
VL: not shown
notes: anti-ID IgG
Take B1: the figures for the dissociation constant Kd in test [1] and in test [2] were 2.99 nM and 12.5 nM, respectively.

B2: ADI-34140 (antibody, V domains shown)
VH: B1 VH
VL: not shown
notes: anti-ID IgG
On to B2, for which the Kd in test [1] stood at 2.9 nM; in test [2] it was 18.9 nM.
